The test system of data set [1] is H1N1 A/California/07/2009 (CA09) virus. In words: Pre-exposure administration and lethal influenza challenge in BALB/c mice. The class given is in vivo. Here is the method:
All animal experiments used in this study were approved by the University of Washington Institutional Animal Care and Use Committee. […] Two to forty-eight hours later, the mice were anesthetized by isoflurane and challenged intranasally with 10 MLD50 (fifty percent mouse lethal dose) of either A/California/07/09 (H1N1) (CA09) or A/PR/8/34 (H1N1) (PR8). In a therapeutic setting, mice received the protein binder 0 (2 hours post-infection), 1, 2, 3, or 4 days post infection. The mice were monitored daily for weight loss and survival until 14 days post-infection. Animals that lost more than 30% of their initial body weight were euthanized in accordance with our animal protocol. The SCID (NOD SCID gamma, strain NOD.Cg-Prkdcscid Il2rgtm1Wjl/SzJ) mice and the MyD88−/−(strain B6.129P2(SJL)-Myd88tm1.1Defr/J) mice were purchased from Jackson Laboratory.

Data set [2] in a line: ELISA for serum binding antibodies against HB36.6 after repeat dosing. Format: in vivo, mice. To be noted: 3.0 mg/kg IN doses two weeks apart. The protocol: Plates were blocked with 5% nonfat milk powder in PBS for 1 h at room temperature, and then washed three times with wash buffer (PBS-T; phosphate-buffered saline containing 0.05% Tween 20). Two-fold serial dilutions of samples were added to the wells and plates were incubated for 1 hr at room temperature. Following three washes with PBS-T, plates were incubated with horseradish-peroxidase conjugated goat anti-mouse IgG (1/3,000 dilution) secondary antibodies (Thermo Scientific Pierce) for 1 h at room temperature. After five washes with PBS-T, TMB substrate (KPL) was added to the wells for 30 min at room temperature.
A general note: In an ELISA, binding on a coated surface is turned into a signal by an enzyme label.

The mark [3] stands for this setting: 0.01 mg/kg IN two hours prior to lethal CA09 challenge.
The mark [4] stands for this setting: 0.1 mg/kg IN two hours prior to lethal CA09 challenge.
Setting [5] is: 1.0 mg/kg IN two hours prior to lethal CA09 challenge.

B1: HB36.6: HA stem binding protein, variant of HB36.5 with nine substitutions (SEQ ID NO: 3); FLAG-tagged in the studies (protein)
chain: SNAMDGQQLNRLLLENIGAWDPFGLGKDAYTYQAAEVLKAVYETNRAFDLAMRIHWIYNFAFKRRIPFARTQKLARRLLELKQAASSPLP
modifications: FLAG tag; (1)..(5) optionally absent; (86)..(90) optionally absent
notes: FLAG-tagged in the studies
Turning to B1, the “mice recovered and survived” value in data set [1] (setting [3]) was determined as 20%. The “survived longer than controls” value in data set [1] (setting [3]) was in the range of 2 to 3 days. The weight loss entry is given as “exhibited weight loss” in data set [1] (setting [3]), “little” in data set [1] (setting [4]), “no” in data set [1] (setting [5]) and “moderate to low” in data set [1] (single IN dose 6.0 mg/kg up to 48 hours before 10 MLD50 CA09). Besides, the survival is given as 100% in data set [1] (setting [4]); 100% in data set [1] (setting [5]); 100% in data set [1] (single IN dose 6.0 mg/kg at 2, 24 or 48 hours before 10 MLD50 CA09). Moreover, the “protection from mortality and morbidity” value in data set [1] (lethal CA09 challenge 24 hours after the 4th dose (3.0 mg/kg IN), data not shown) is recorded as 100%. Also, the protection result in data set [1] (same dose (6.0 mg/kg) delivered intravenously (IV), data not shown) was “no protection”. In addition, the “serum binding antibodies against HB36.6” value in data set [2] (after the 1st and 2nd dose) is “No antibodies against HB36.6 were detected”. Moreover, the “animals with low levels of antibody responses” value in data set [2] (by 3rd dose) is reported as 4 of the 10.

(Values after patent US9771395B2, “Enhanced influenza hemagglutinin binders” (UNIVERSITY OF WASHINGTON, priority 2014, dated 2017).)
